The values below come from paper PMC6901390, “Cell-Free Enzymatic Conversion of Spent Coffee Grounds Into the Platform Chemical Lactic Acid” (Frontiers in Bioengineering and Biotechnology, 2019).

Common to all, as to assay: purified protein
Substrate in data set [1]: CC(=O)C(=O)O
Type of data set: biochemical, Geobacillus stearothermophilus. As to conditions: 0.2 mM NADH, 20 mM sodium phosphate pH 7.0, 50 °C, 0-50 mM pyruvate.

Substrate in data set [2]: CC(=O)C(=O)O
The data set is classed as biochemical, Thermoplasma acidophilum. The following applies: pyruvate and D-glyceraldehyde varied together (0.5-40 mM), one combined Km, 20 mM sodium phosphate pH 7.0, 50 °C.

Substrate in data set [3]: O=C[C@H](O)CO
As to conditions: pyruvate and D-glyceraldehyde varied together (0.5-40 mM), one combined Km, 20 mM sodium phosphate pH 7.0, 50 °C.

B1: LDH (Geobacillus stearothermophilus) (protein)
chain: MKNNGGARVVVIGAGFVGASYVFALMNQGIADEIVLIDANESKAIGDAMDFNHGKVFAPKPVDIWHGDYDDCRDADLVVICAGANQKPGETRLDLVDKNIAIFRSIVESVMASGFQGLFLVATNPVDILTYATWKFSGLPHERVIGSGTILDTARFRFLLGEYFSVAPQNVHAYIIGEHGDTELPVWSQAYIGVMPIRKLVESKGEEAQKDLERIFVNVRDAAYQIIEKKGATYYGIAMGLARVTRAILHNENAILTVSAYLDGLYGERDVYIGVPAVINRNGIREVIEIELNDDEKNRFHHSAATLKSVLARAFTR
notes: synthetic gene, His-tagged, pETDuet-1, expressed in E. coli BL21 (DE3), Ni-NTA purified
For the protein B1, in the data set “purified protein [1]”, the Km (usually the substrate concentration at which the rate is half of its maximum) was 10.95 ± 1.67 mM; the Vmax (in general, the top rate of the reaction or transport when substrate is in excess) turned out to be 194 µmol/min/mg; the kcat (commonly the maximal rate divided by the concentration of active sites) stood at 117 s⁻¹; the kcat/Km (usually the turnover number divided by the Michaelis constant) worked out at 10600 M⁻¹ s⁻¹.

B2: KDGA (Thermoplasma acidophilum DSM 1728) (protein)
chain: MYKGIVTPMITPMGQNGEIDYRATEILIDNLADFGVDGLFPMGSTGLFPMFSTDEKKKFLGFVRDHSKKIEVYAGVGSSSTQESVELSKYTEDIGIKVRVLMPTYYIKPDEDWMYRHFSTVISAASNDLFIYNIPQLSGSWISESLIEKLTREFSNVKGIKDSSGDMRFFSRIIRHKNEKFDIFQGQDDLLFLSLSIGASGGVCGLSNISPYITNLYHEFSAGNLEKARKIQIDEVNPLMYAINEATFPAGYYYAFYKMNGIKGGYRAPMVEPTTDQKKKIDQELTKIPKKQ
notes: His-tagged, pProEX HTc, expressed in E. coli BL21-CodonPlus (DE3)-RIL, Ni-NTA purified
With B2, in “purified protein [2]”, the Km came out at 8.07 ± 1.29 mM, the maximum rate (Vmax) turned out to be 17 µmol/min/mg, the kcat turned out to be 10.5 s⁻¹ and the kcat/Km was determined as 1300 M⁻¹ s⁻¹. In “purified protein [3]”, the Km turned out to be 8.07 ± 1.29 mM, the maximal velocity (Vmax) came to 17 µmol/min/mg, the turnover number (kcat) stood at 10.5 s⁻¹ and the kcat/Km came to 1300 M⁻¹ s⁻¹.
